Residue numbers refer to the chain shown, from its start. Numbers in names are those of the source.

Assay [1] has as its target T1, recombinant human VEGF-R2-Fc (human, UniProt P35968 20-764).
T1 construct: Bought Fc fusion (R&D Systems cat#357-KD); also called hVEGFR2-Fc; VEGF-R2 (KDR/Flk-1); not shown: Fc part of the bought fusion protein
In words: competition ELISA: antibody added to coated hVEGF-R2-Fc, then biotinylated hVEGF165 (competitor). Here is the method: To identify molecules which could block the binding of VEGF-R2 (KDR/Flk-1) to hVEGF₁₆₅, a competition ELISA was performed. […] Plates were then washed four times with wash buffer (TBS, 0.05% Tween-20) and blocked with Superblock blocking buffer (Thermo Scientific, cat#37535). […] The samples were added to wells and incubated for 30 minutes at 25° C. with shaking. […] Following incubation, plates were washed four times with wash buffer. Streptavidin-polyHRP-40 (Fitzgerald cat#65r-s104phrp) was diluted in assay diluent (10% Superblock containing 0.05% surfactamps) and added to plates (50 μL) for 45 minutes at 25° C. with shaking. Plates were washed four times with wash buffer and developed with the addition of Enhanced K-blue TMB substrate (Neogen cat#308177). The reaction was stopped with 2N sulfuric acid (VWR, cat# BDH3500-1) and the absorbance was read at 450 nm-570 nm. A decrease in observed optical density indicates the test molecule is blocking the human VEGF-R2-Fc binding to hVEGF₁₆₅. Data was analyzed using Softmax Pro 4.8 software and IC₅₀ values calculated using a sigmoidal dose response (variable slope) fit in GraphPad Prism 5.
Humanized anti-VEGFR2 antibodies were tested for potency against hVEGFR2 in functional assay formats. The antibodies were characterized for the ability to block VEGFR2 binding to hVEGF₁₆₅ in a competition ELISA format (Example 1.22).
Background: In an ELISA, binding on a coated surface is turned into a signal by an enzyme label.

Assay [2] concerns the target T2, recombinant human PDGF-BB (human, UniProt P01127 82-190, biotin-labelled in the binding and competition ELISAs (sites not given)). Kind of assay: cell-based or functional assay.
Assay [3] addresses T2, recombinant human PDGF-BB. Kind of assay: receptor competition ELISA: antibody pre-incubated with biotin-hPDGF-BB, binding to coated hPDGF-Rβ-Fc. Here is the method:
(§1) Plates were then washed four times with wash buffer (TBS, 0.05% Tween-20) and blocked with Superblock blocking buffer (Thermo Scientific, cat#37535). During the blocking step, supernatants, antibodies, benchmark compounds or DVD-Ig were diluted in assay diluent (10% Superblock containing 0.05% surfactamps) and an eight point titration of each sample molecule was performed. […] Following incubation, plates were washed four times with wash buffer. Detection reagent Streptavidin-polyHRP-40 (Fitzgerald, cat#65r-s104phrp) was diluted in assay diluent and added to plates (50 μL) for 45 minutes at 25° C. with shaking. Plates were washed four times with wash buffer and developed with the addition of Enhanced K-blue TMB substrate (Neogen, cat#308177). The reaction was stopped with 2N sulfuric acid (VWR, cat# BDH3500-1) and the absorbance was read at 450 nm-570 nm. […] Data was analyzed using Softmax Pro 4.8 software and IC₅₀ values calculated using a sigmoidal dose response (variable slope) fit in GraphPad Prism 5.

Assay [4] has as its target T3, recombinant human VEGF165 (human, UniProt P15692 207-395). In words: cell-based or functional assay.
Assay [5] concerns the target T4, recombinant human PDGF-BB (human, UniProt P01127 82-190). Kind of assay: cell-based or functional assay.
Assay [6] deals with T4, recombinant human PDGF-BB. Kind of assay: competition ELISA: blocks hPDGF-BB-biotin binding to coated hPDGF-Rβ-Fc. The procedure:
as §1

In assay [7] the target is T3, recombinant human VEGF165. Kind of assay: competition ELISA: blocks biotinylated hVEGF165 binding to coated hVEGF-R2-Fc. The procedure:
To identify molecules that could block the binding of hVEGF₁₆₅ to the hVEGF-R2 (KDR/Flk-1) receptor, a competition ELISA was performed. […] Plates were then washed four times with wash buffer (TBS, 0.05% Tween-20) and blocked with Superblock blocking buffer (Thermo Scientific, cat#37535). […] The pre-incubated sample/hVEGF₁₆₅ complex was added to the coated plate at 50 μL in duplicate and incubated for 30 minutes at 25° C. with shaking. Following incubation, plates were washed four times with wash buffer. Streptavidin-polyHRP-40 (Fitzgerald cal#65r-s104phrp) was diluted in assay diluent (10% Superblock containing 0.05% surfactamps) and added to plates (50 μL) for 45 minutes at 25° C. with shaking. Plates were washed four times with wash buffer and developed with the addition of Enhanced K-blue TMB substrate (Neogen cat#308177). The reaction was stopped with 2N sulfuric acid (VWR, cat# BDH3500-1) and the absorbance was read at 450 nm-570 nm. A decrease in observed optical density indicates the test molecule is blocking the hVEGF₁₆₅ binding to the hVEGF-R2-Fc. Data was analyzed using Softmax Pro 4.8 software and IC₅₀ values calculated using a sigmoidal dose response (variable slope) fit in GraphPad Prism 5.

T1 sequence (P35968 20-764 limits assumed): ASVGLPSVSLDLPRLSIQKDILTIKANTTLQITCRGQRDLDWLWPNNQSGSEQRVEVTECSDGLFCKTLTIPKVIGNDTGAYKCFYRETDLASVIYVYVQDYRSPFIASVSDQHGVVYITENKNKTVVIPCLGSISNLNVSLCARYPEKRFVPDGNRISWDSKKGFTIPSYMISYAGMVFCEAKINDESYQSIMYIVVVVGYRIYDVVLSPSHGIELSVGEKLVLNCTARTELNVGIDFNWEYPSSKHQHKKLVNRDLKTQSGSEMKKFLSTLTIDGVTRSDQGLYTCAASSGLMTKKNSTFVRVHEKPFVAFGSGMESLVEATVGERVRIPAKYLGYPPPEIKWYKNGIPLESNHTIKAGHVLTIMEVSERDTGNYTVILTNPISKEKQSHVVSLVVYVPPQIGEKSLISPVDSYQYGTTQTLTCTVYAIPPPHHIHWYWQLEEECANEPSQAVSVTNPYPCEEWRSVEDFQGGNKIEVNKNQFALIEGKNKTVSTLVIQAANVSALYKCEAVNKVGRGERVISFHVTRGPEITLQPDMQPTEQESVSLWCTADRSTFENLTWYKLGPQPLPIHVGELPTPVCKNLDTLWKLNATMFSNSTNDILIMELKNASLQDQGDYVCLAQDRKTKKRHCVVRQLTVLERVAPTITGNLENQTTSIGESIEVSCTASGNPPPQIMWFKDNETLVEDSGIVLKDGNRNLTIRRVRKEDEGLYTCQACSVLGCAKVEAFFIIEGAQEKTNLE
T3 sequence (P15692 other isoform, or with tags, fused parts or gaps limits assumed): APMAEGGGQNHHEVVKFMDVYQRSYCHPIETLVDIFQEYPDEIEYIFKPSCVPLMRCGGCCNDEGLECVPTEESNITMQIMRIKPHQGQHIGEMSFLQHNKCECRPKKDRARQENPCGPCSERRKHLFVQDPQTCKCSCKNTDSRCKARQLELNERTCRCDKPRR
T4 sequence (P01127 82-190 limits assumed): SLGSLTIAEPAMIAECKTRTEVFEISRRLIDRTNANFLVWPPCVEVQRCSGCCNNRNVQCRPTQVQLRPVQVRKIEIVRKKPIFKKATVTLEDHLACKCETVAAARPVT
T2 sequence (P01127 82-190 limits assumed): as above

B1: hBCU-6B1.2 (antibody, V domains shown)
VH: EVQLVQSGAEVKKPGASVKVSCKASGYTFTNYGMYWVKQAPGQGLEFMGWINTETGQPTYADDFKGRFTFTLDTSTSTAYMELRSLRSDDTAVYFCARLGNNYGIWFAYWGQGTLVTVSS
VL: DIQMTQSPSSLSASVGDRVTIECRASDDLYSTLAWYQQKPGKSPKLLIFDANRLAAGVPSRFSGSGSGTDYSLTISSLQPEDVATYFCQQYNKFPWTFGGGTKVEIK
notes: Humanized anti-human VEGFR II IgG from pHybE expression vectors
As for B1, the half-inhibitory concentration (IC50) in assay [1] came to 340 pM.

B2: hBCU-6B1.1 (antibody, V domains shown)
VH: EVQLVQSGSELKKPGASVKVSCKASGYTFTNYGMYWVKQAPGQGLEFMGWINTETGQPTYADDFKGRFVFSLDTSVSTAYLQISSLKAEDTAVYFCARLGNNYGIWFAYWGQGTLVTVSS
VL: B1 VL
notes: as for B1
For B2, the IC50 in assay [1] is 474 pM.

B3: hBCU-6B1.3 (antibody, V domains shown)
VH: B1 VH with K38R, F95Y
VL: B1 VL
notes: as for B1
Regarding B3, the IC50 in assay [1] stood at 319 pM.

B4: chBDI-1E1 (antibody, human IgG1, V domains shown)
VH: EVKLQQSGDELVRPGASVKMSCKASGYTFTDYVMHWVKQSPGQGLEWIGTIIPLIDTTSYNQKFKGKATLTADKSSNTAYMELSRLTSEDSAVYYCARTSPYYYSSYDVMDAWGQGASVTVSS
VL: NIQLTQSPSLLSASVGDRVTLSCKGSQNINNYLAWYQQKLGEAPKLLIYKTNNLQTGIPSRFSGCGSGTDYTLTISSLHSEDLATYYCYQYDNGYTFGAGTKLELK
notes: also called chimeric BDI-1E1-D5
In the case of B4, the “huPDGF-BB Neutralization Potency (nM) in NIH-3T3 Cells” value in assay [2] was greater than 5 nM. Besides, the IC50 in assay [3] is 417 pM.

B5: hVEGF 4G8.3-GS-hPDGF 9E8.4 [hu IgG1/k] mut(234, 235) H435A (bispecific antibody)
heavy: EVQLVQSGSELKKPGASVKVSCKASGYTFTNYGMYWVRQAPGQGLEWMGWINTETGKPTYADDFKGRFVFSLDTSVSTAYLQISSLKAEDTAVYYCARTNYYYRSYIFYFDYWGQGTMVTVSSGGGGSGGGGSEVTLRESGPALVKPTQTLTLTCTFSGFSLSTYGMGVGWIRQPPGKALEWLANIWWDDDKYYNPSLKNRLTISKDTSKNQVVLTMTNMDPVDTATYYCARIESIGTTYSFDYWGQGTMVTVSSASTKGPSVFPLAPSSKSTSGGTAALGCLVKDYFPEPVTVSWNSGALTSGVHTFPAVLQSSGLYSLSSVVTVPSSSLGTQTYICNVNHKPSNTKVDKKVEPKSCDKTHTCPPCPAPEAAGGPSVFLFPPKPKDTLMISRTPEVTCVVVDVSHEDPEVKFNWYVDGVEVHNAKTKPREEQYNSTYRVVSVLTVLHQDWLNGKEYKCKVSNKALPAPIEKTISKAKGQPREPQVYTLPPSREEMTKNQVSLTCLVKGFYPSDIAVEWESNGQPENNYKTTPPVLDSDGSFFLYSKLTVDKSRWQQGNVFSCSVMHEALHNAYTQKSLSLSPGK
light: DTVLTQSPATLSLSPGERATLSCRASESVSTHMHWYQQKPGQAPRLLIYGASNLESGVPARFSGSGSGTDFTLTISSLEPEDFAVYFCQQSWNDPFTFGQGTKLEIKRGGSGGGGSGEFVLTQSPGTLSLSPGERATLSCERSSGDIGDSYVSWYQQKPGQAPRLVIYADDQRPSGIPDRFSGSGSGTDFTLTISRLEPEDFAVYYCQSYDINIDIVFGGGTKVEIKGTVAAPSVFIFPPSDEQLKSGTASVVCLLNNFYPREAKVQWKVDNALQSGNSQESVTEQDSKDSTYSLSSTLTLSKADYEKHKVYACEVTHQGLSSPVTKSFNRGEC
notes: DVD-Ig, outer anti-VEGF hBDB-4G8.3, inner anti-PDGF hBDI-9E8.4; also called 4G8.3-GS-9E8.4
Turning to B5, the “Potency IC50 (nM) HMVEC-d hVEGF165” value in assay [4] was 0.341 nM. Besides, the “Potency IC50 (nM) NIH-3T3 hPDGF-BB” value in assay [5] came out at 0.63 nM. For the same molecule, the half-maximal inhibitory concentration (IC50) in assay [6] was greater than 5000 pM; in assay [7], 137 pM.

B6: 9E10.1_GS_CL-33675 (bispecific antibody, human IgG1, kappa, L234A L235A)
heavy: EIQLVQSGSELKKPGASVKVSCKASGYTFTNYGMYWVKQAPGQGLEYMGWIDTETGRPTYADDFKGRFVFSLDTSVSTAYLQISSLKAEDTAVYFCARWSGDTTGIRGPWFAYWGQGTLVTVSSGGGGSGGGGSEVTLRESGPALVKPTQTLTLTCTFSGFSLSTYGMGVGWIRQPPGKALEWLANIWWDDDKYYNPSLKNRLTISKDTSKNQVVLTMTNMDPVDTATYYCARIESSGPKYSFDYWGQGTMVTVSSASTKGPSVFPLAPSSKSTSGGTAALGCLVKDYFPEPVTVSWNSGALTSGVHTFPAVLQSSGLYSLSSVVTVPSSSLGTQTYICNVNHKPSNTKVDKKVEPKSCDKTHTCPPCPAPEAAGGPSVFLFPPKPKDTLMISRTPEVTCVVVDVSHEDPEVKFNWYVDGVEVHNAKTKPREEQYNSTYRVVSVLTVLHQDWLNGKEYKCKVSNKALPAPIEKTISKAKGQPREPQVYTLPPSREEMTKNQVSLTCLVKGFYPSDIAVEWESNGQPENNYKTTPPVLDSDGSFFLYSKLTVDKSRWQQGNVFSCSVMHEALHNAYTQKSLSLSPGK
light: DIRMTQSPSSLSASVGDRVTIECLASEDIYSDLAWYQQKPGKSPKLLIYNANGLQNGVPSRFSGSGSGTDYSLTISSLQPEDVATYFCQQYNYFPGTFGQGTKLEIKGGSGGGGSGGEIVLTQSPGTLSLSPGERATLSCRASSGSIWYSFVSWYQQKPGQAPRLLIYADDQRASGIPDRFSGSGSGTDFTLTISRLEPEDFAVYYCQSYGINIDVVFGGGTKVEIKRTVAAPSVFIFPPSDEQLKSGTASVVCLLNNFYPREAKVQWKVDNALQSGNSQESVTEQDSKDSTYSLSSTLTLSKADYEKHKVYACEVTHQGLSSPVTKSFNRGEC
notes: DVD-Ig, outer hBEW-9E10.1, inner CL-33675, GS-H10/GS-L10(dR), hu IgG1/k LALA H435A; also called PR-1610561; 9E10.1-GS-33675
In the case of B6, in assay [4], the “Potency IC50 (nM) HMVEC-d hVEGF165” value is 0.145 nM. In assay [5], the “Potency IC50 (nM) NIH-3T3 hPDGF-BB” value was 0.034 nM. Also, the IC50 in assay [6] turned out to be 90 pM; in assay [7], 45 pM.

B7: hVEGF 4G8.3-SL-hPDGF 9E8.4 [hu IgG1/k] mut(234, 235) H435A (bispecific antibody)
heavy: EVQLVQSGSELKKPGASVKVSCKASGYTFTNYGMYWVRQAPGQGLEWMGWINTETGKPTYADDFKGRFVFSLDTSVSTAYLQISSLKAEDTAVYYCARTNYYYRSYIFYFDYWGQGTMVTVSSASTKGPEVTLRESGPALVKPTQTLTLTCTFSGFSLSTYGMGVGWIRQPPGKALEWLANIWWDDDKYYNPSLKNRLTISKDTSKNQVVLTMTNMDPVDTATYYCARIESIGTTYSFDYWGQGTMVTVSSASTKGPSVFPLAPSSKSTSGGTAALGCLVKDYFPEPVTVSWNSGALTSGVHTFPAVLQSSGLYSLSSVVTVPSSSLGTQTYICNVNHKPSNTKVDKKVEPKSCDKTHTCPPCPAPEAAGGPSVFLFPPKPKDTLMISRTPEVTCVVVDVSHEDPEVKFNWYVDGVEVHNAKTKPREEQYNSTYRVVSVLTVLHQDWLNGKEYKCKVSNKALPAPIEKTISKAKGQPREPQVYTLPPSREEMTKNQVSLTCLVKGFYPSDIAVEWESNGQPENNYKTTPPVLDSDGSFFLYSKLTVDKSRWQQGNVFSCSVMHEALHNAYTQKSLSLSPGK
light: DTVLTQSPATLSLSPGERATLSCRASESVSTHMHWYQQKPGQAPRLLIYGASNLESGVPARFSGSGSGTDFTLTISSLEPEDFAVYFCQQSWNDPFTFGQGTKLEIKRTVAAPSVFIFPPEFVLTQSPGTLSLSPGERATLSCERSSGDIGDSYVSWYQQKPGQAPRLVIYADDQRPSGIPDRFSGSGSGTDFTLTISRLEPEDFAVYYCQSYDINIDIVFGGGTKVEIKGTVAAPSVFIFPPSDEQLKSGTASVVCLLNNFYPREAKVQWKVDNALQSGNSQESVTEQDSKDSTYSLSSTLTLSKADYEKHKVYACEVTHQGLSSPVTKSFNRGEC
notes: DVD-Ig, outer hBDB-4G8.3, inner hBDI-9E8.4, HG-short/LK-long; also called 4G8.3-SL-9E8.4
For B7, the “Potency IC50 (nM) HMVEC-d hVEGF165” value in assay [4] is 0.36 nM. Moreover, the “Potency IC50 (nM) NIH-3T3 hPDGF-BB” value in assay [5] turned out to be 0.427 nM. The half-inhibitory concentration (IC50) is greater than 5000 pM in assay [6] and 133 pM in assay [7].

A word on the IC50: it is the point on the concentration scale where inhibition reaches its midpoint.

Values taken from patent US20170015742A1 (published 2017).
